# Test results from patent US20100226985A1, “VISCOELASTIC AQUEOUS GELS COMPRISING MICROSPHERES” (priority 2006, published 2010).
# Assay: Lysozyme release from viscoelastic gels into release buffer (BCA protein assay)
# Assay type: physicochemical
# Settings: after approximately one month; gel solid content 15 wt.-%, DS 4 and 8, lysozyme 1 wt.-% in buffer; release buffer Hepes pH 7
# Protocol: Viscoelastic gel compositions with a solid content of 15 wt.-% comprising lysozyme as a model active compound were prepared by dispersing equal amounts of dex-HEMA-L-lactate and dex-HEMA-D-lactate microspheres (DS 4 and 8) in lysozyme-containing (1 wt.-%) aqueus buffer solution. The microparticles were allowed to hydrate overnight at 4° C. Viscoelastic gels were formed which were then tested for lysozyme release using the method described by Van Tomme et al. JCR 2005; 110:67-78. In short, samples of 500 mg of the gels were transferred in a release device and 3 mL release buffer (Hepes, pH 7, 100 mM, 150 mM NaCl, 0.02% NaN3). At certain time intervals, samples were taken and analysed for their protein content using a BCA® protein assay. After approximately one month, about 80% of the entrapped lysozyme was released. No significant difference could be detected between the two batches (i.e. with DS 4 and DS 8) were observed.
substance,measurement,value
lysozyme,entrapped lysozyme released,about 80%
